The assay addresses GST-HC-Pro^K (HC-Pro of turnip mosaic virus, FRNK motif mutated to FKNK) (turnip mosaic virus (TuMV)). The assay can be described thus: pull-down; 2 μg bait (GST-HC-Pro^R or GST-HC-Pro^K) and 2 μg prey (his-AtHEN1) in 50 mM Tris-HCl pH 7.5, 100 mM NaCl, 0.2% glycerol, 0.6% Triton X-100, 0.5 mM β-mercaptoethanol; 25 °C, 2 h; Glutathione Sepharose 4B; blot with α-His or α-GST.

B1: his-AtHEN1 (recombinant full-length Arabidopsis HEN1) (enzyme)
chain: MAGGGKHTPTPKAIIHQKFGAKASYTVEEVHDSSQSGCLGLAIPQKGPCLYRCHLQLPEFSVVSNVFKKKKDSEQSAAELALDKLGIRPQNDDLTVDEARDEIVGRIKYIFSDEFLSAEHPLGAHLRAALRRDGERCGSVPVSVIATVDAKINSRCKIINPSVESDPFLAISYVMKAAAKLADYIVASPHGLRRKNAYPSEIVEALATHVSDSLHSREVAAVYIPCIDEEVVELDTLYISSNRHYLDSIAERLGLKDGNQVMISRMFGKASCGSECRLYSEIPKKYLDNSSDASGTSNEDSSHIVKSRNARASYICGQDIHGDAILASVGYRWKSDDLDYDDVTVNSFYRICCGMSPNGIYKISRQAVIAAQLPFAFTTKSNWRGPLPREILGLFCHQHRLAEPILSSSTAPVKSLSDIFRSHKKLKVSGVDDANENLSRQKEDTPGLGHGFRCEVKIFTKSQDLVLECSPRKFYEKENDAIQNASLKALLWFSKFFADLDVDGEQSCDTDDDQDTKSSSPNVFAAPPILQKEHSSESKNTNVLSAEKRVQSITNGSVVSICYSLSLAVDPEYSSDGESPREDNESNEEMESEYSANCESSVELIESNEEIEFEVGTGSMNPHIESEVTQMTVGEYASFRMTPPDAAEALILAVGSDTVRIRSLLSERPCLNYNILLLGVKGPSEERMEAAFFKPPLSKQRVEYALKHIRESSASTLVDFGCGSGSLLDSLLDYPTSLQTIIGVDISPKGLARAAKMLHVKLNKEACNVKSATLYDGSILEFDSRLHDVDIGTCLEVIEHMEEDQACEFGEKVLSLFHPKLLIVSTPNYEFNTILQRSTPETQEENNSEPQLPKFRNHDHKFEWTREQFNQWASKLGKRHNYSVEFSGVGGSGEVEPGFASQIAIFRREASSVENVAESSMQPYKVIWEWKKEDVEKKKTDL
As for B1, the fold pull-down signal was 0.2 to 0.3 fold.

These data come from paper PMC8473176.
